How the values were obtained:
Conditions in all cases: La3+ as metal cofactor; PQQ enzyme; artificial electron acceptor PMS/DCPIP
purified protein = substrate: C=O; assay: purified protein
[1] = substrate: CCO; assay: PMS-mediated DCPIP reduction, Michaelis-Menten fit; type: biochemical, Methylorubrum extorquens
[2] = substrate: CO; assay: PMS-mediated DCPIP reduction, Michaelis-Menten fit; type: biochemical, Methylorubrum extorquens

B1: XoxF1 MDH (XoxF1-La) (Methylorubrum extorquens AM1) (protein)
chain: NESVLKGVANPAEQVLQTVDYANTRYSKLDQINASNVKNLQVAWTFSTGVLRGHEGSPLVVGNIMYVHTPFPNIVYALDLDQGAKIVWKYEPKQDPSVIPVMCCDTVNRGLAYADGAILLHQADTTLVSLDAKSGKVNWSVKNGDPSKGETNTATVLPVKDKVIVGISGGEFGVQCHVTAYDLKSGKKVWRGYSIGPDDQLIVDPEKTTSLGKPIGKDSSLKTWEGDQWKTGGGCTWGWFSYDPKLDLMYYGSGNPSTWNPKQRPGDNKWSMTIWARNPDTGMAKWVYQMTPHDEWDFDGINEMILTDQKFDGKDRPLLTHFDRNGFGYTLDRATGEVLVAEKFDPVVNWATKVDLDKGSKTYGRPLVVSKYSTEQNGEDVNSKGICPAALGTKDQQPAAFSPKTGLFYVPTNHVCMDYEPFRVTYTPGQPYVGATLSMYPAPGSHGGMGNFIAWDNLQGKIKWSNPEQFSAWGGALATAGDVVFYGTLEGFLKAVDSKTGKELYKFKTPSGIIGNVMTYEHKGKQHVAVLSGVGGWAGIGLAAGLTDPNAGLGAVGGYAALSSYTNLGGQLTVFSLPNN
Km (purified protein): 96 µM | Km [1]: 639 µM | Km [2]: 44 µM

Source: publication doi:10.1101/329011v1
